B1: Azoarcus group I ribozyme (parent)
chain: GUGCCUUGCGCCGGGAAACCACGCAAGGGAUGGUGUCAAAUUCGGCGAAACCUAAGCGCCCGCCCGGGCGUAUGGCAACGCCGAGCCAAGCUUCGGCGCCUGCGCCGAUGAAGGUGUAGAGACUAGACGGCACCCACCUAAGGCAAACGCUAUGGUGAAGGCAUAGUCCAGGGAGUGGCGAAAGUCACACAAACCGG

In this data set the parent is B1. As to the kind of experiment: reverse-splicing fitness (ratio to wild type); higher = more active; in vitro selection; Mg2+ level not given. The essentials:
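An in vitro group I ribozyme library with randomized positions was T7-transcribed and gel-purified. In triplicate, 10 pmol RNA in EPPS pH 7.5 was reacted with 50 pmoles of a 30-nt RNA substrate for 1 h at 37 °C across several added MgCl2 levels (1–48 mM), then stopped with EDTA. Products were reverse transcribed from a substrate-complementary primer, PCR-amplified and sequenced (HiSeq 4000). Fitness is a variant's read proportion after selection over that before, normalised to wild type.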
Turning to C82U A111C A145G C169A U176A, the reverse-splicing fitness stood at 0.0231. In the case of A111U A120U C169A U176G, the reverse-splicing fitness was determined as 0.00214. Then C82A A111G A120G C150U C169A, with 0.00952; and C82G A111U A120U A145G C150U C169G, with 0.00641; and C82A A111G A120G A145G C150A U176A, with 0.0103. Take C82G A111U A120G A145U C150U C169G: the reverse-splicing fitness amounted to 0.0123.

For the variant A120C C150G U176G, the reverse-splicing fitness amounted to 0.0145. Then C82A A120U A145U C169A U176A, with 0.00216; and C82G A120C A145C C169A U176G, with 0.00378; and C82U A145G C150A C169A U176A, with 0.0196. The value for C82G A111G A120G C150U C169U U176C was 0.0174; that for C82G A111C A120U A145U C150A C169A U176A was 0.00336; that for C82G A120U C150U C169G U176G was 0.00205. The value for C82U A111G A120C A145G C150A C169U U176A was 0.015; that for A111C A120G A145G U176C was 0.0456; that for C82A A111C A120C A145U C150A C169A was 0.00876. Take C82A A120G A145U C150U C169A U176G: the reverse-splicing fitness turned out to be 0.00418. Then A120G A145C C150G U176A, with 0.0444; and C82G A111U A120C C150G C169U U176A, with 0.00756.

On to A111C A120G C169U U176G, for which the reverse-splicing fitness stood at 0.00657. The value for A111G A145G C150A C169U U176C was 0.0251. The value for C82U A111U A120U A145C U176C was 0.00756; that for C82G A111G A120C A145U C150U U176G was 0.00869.

A120C A145C C150A C169A U176C: the reverse-splicing fitness was 0.00472.

Take C82U A111G A120U C150U C169G U176G: the reverse-splicing fitness turned out to be 0.00216. The value for A120U A145G was 0.837; that for C82A A145G C150G C169U U176C was 0.0136; that for C82A A111C A120U A145C C150G C169G U176G was 0.00318. Then C82A A120C A145C C150A C169A, with 0.00995. Then A120U A145U C150U U176A, with 0.608; and C82G A111U A145G C150A C169G U176G, with 0.00671; and C82A A111U A120U C150A C169U U176G, with 0.00224.

Take C82U A111U A120U A145G C169G U176C: the reverse-splicing fitness amounted to 0.0035. Then C82G A111C A120C A145G C150A, with 0.0148; and C82U A145U C169G U176A, with 0.00811. C82U A111G A120U A145C C150U C169G U176A: the reverse-splicing fitness stood at 0.00322. As for C82A A111U A120C A145C C150U C169A U176C, the reverse-splicing fitness amounted to 0.0162. As to C82U A120C A145G C150U U176G, the reverse-splicing fitness amounted to 0.00907.

Turning to A111U A120U A145G U176A, the reverse-splicing fitness amounted to 0.27.

Take C82A A120U C150G C169G: the reverse-splicing fitness was 0.00634. With C82U A111G A120G A145G C150G C169U, the reverse-splicing fitness stood at 0.00855. The value for C82G A111C C150G C169A U176C was 0.0108; that for C82A A120U A145U C150G C169U was 0.00321; that for C82U A120C A145C C150G U176C was 0.0126. The value for C82A A111C A120G A145G C150U C169U U176C was 0.0131; that for C82A A111U A120C A145U C150U U176G was 0.00684; that for C82A A111G A120C A145U C150A U176A was 0.012. Then C82G A120U A145U C150U, with 0.131; and C82G A111G A120G A145U C150A C169A U176A, with 0.0175; and C82A A111G A145C C150U C169G U176C, with 0.0114. On to C82U A111C A120G A145G C150A C169U, for which the reverse-splicing fitness stood at 0.00786. The value for A120C A145U C150U C169U U176A was 0.131. For the variant C82A A111C A145U C150G U176A, the reverse-splicing fitness is 0.00919. Take C82G A111G A120U A145C C150A C169A: the reverse-splicing fitness was 0.00228.

For the variant C82A A111U A120C A145G C150U, the reverse-splicing fitness was 0.0255.

A111C A120C A145C C150A: the reverse-splicing fitness stood at 0.0308.

Regarding C82G A145U C150A C169U U176G, the reverse-splicing fitness is 0.00507. Then A111C C169A, with 0.032; and C82U A111U A120C A145G C169G U176A, with 0.0152. Regarding C82G A111C A120G A145U C150A C169A U176A, the reverse-splicing fitness was found to be 0.0128. Then C82U A111U A120U A145C C169G U176G, with 0.0016; and C82A A145U C150G C169G U176G, with 0.0053. The value for C82G A111U A120C C169G was 0.00915. Then C82G C150A U176G, with 0.0188; and C82G A111G A145U C150U C169G U176C, with 0.0152. On to C82U A111U A120G A145C C150A C169A U176C, for which the reverse-splicing fitness is 0.0062. In the case of C82U A111U A145G C150G C169A U176C, the reverse-splicing fitness is 0.0112. Then C82A A111C A145C C150A C169G U176A, with 0.0264. Then C82A A111G A145U C150U U176G, with 0.0305; and C82G A111G A145U C169U U176G, with 0.00489.

For A111C A120G A145G, the reverse-splicing fitness is 0.189. Consider C82A A120G A145C C150G C169G U176A, for which the reverse-splicing fitness is 0.00918. Take A111G A120G C150A: the reverse-splicing fitness stood at 0.0324. The value for C82U A120G A145U C150G C169G U176G was 0.00361; that for C82U A111U A120U A145G C150G C169U U176A was 0.00611. For C82A A111G A145C C150G C169U U176G, the reverse-splicing fitness came out at 0.00568. A111G A120C A145G C150A C169A U176C: the reverse-splicing fitness amounted to 0.0181.

C82G A120G A145G C150G C169U U176C: the reverse-splicing fitness came to 0.0139. Then C82G A111C A120C A145C C150A C169A U176A, with 0.0156; and A111G A120C C150U C169U U176C, with 0.0445; and C82G A111G A120U A145C C150U C169A U176G, with 0.00197. Then A111G A120C A145C C150G U176A, with 0.0148. Then C82U A111C A120C A145C C150A C169G U176A, with 0.0253.

The record behind these values is the RNAGym collection of RNA variant scans (doi:10.1093/molbev/msab373).
